Values of other authors, collected in publication PMC7081292.
Read-outs that look alike come from different tables or passages of the source.

Columns and labels:
[1] = molecular target: T1, His57 (UniProt position 57, VVTAAHCGVTT); experiment: NMR; conditions: zwitterionic tetrahedral adduct with a peptide-derived glyoxal inhibitor
[2] = molecular target: T1, His57; conditions: zwitterionic tetrahedral (hemiacetal) adduct with an aldehyde inhibitor

For “Chymotrypsin (not stated (presumably Bos taurus))”, the pKa [1] is listed as >11 and the pKa [2] is listed as “∼ 8”.
